As usually defined, the Kd is the constant that tells how readily two partners part at equilibrium. High values mean weaker binding, low ones tighter binding.

Data on 1 molecule can be found in article PMC6662825 (2019).

In the assay the target is T1, MBP-ZCCHC8^91–211-(GS)3-eYFP (human, UniProt Q6NZY4 91-211).
T1 chain: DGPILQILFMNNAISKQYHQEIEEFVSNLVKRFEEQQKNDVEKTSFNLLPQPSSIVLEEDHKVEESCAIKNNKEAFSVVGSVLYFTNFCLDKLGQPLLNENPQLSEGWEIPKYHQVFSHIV
The experiment in a line: MST.

B1: MTR4-KOW (domain or fragment)
chain: HKPKYCLPFLQPGRLVKVKNEGDDFGWGVVVNFSKKSNVKPNSGELDPLYVVEVLLRCSKESLKNSATEAAKPAKPDEKGEMQVVPVLVHLLSAISSVRLYIPKDLRPVDNRQSVLKSIQEVQKRFPDGIPLLDPIDDMGIQD
For B1, the affinity, expressed as Kd, was 327 nM.
